# Positions count from the first letter of the chain named.
# T1: human TNFR1 on MRC-5 cells (human, UniProt P19438 30-455)
# T1 sequence (looked up): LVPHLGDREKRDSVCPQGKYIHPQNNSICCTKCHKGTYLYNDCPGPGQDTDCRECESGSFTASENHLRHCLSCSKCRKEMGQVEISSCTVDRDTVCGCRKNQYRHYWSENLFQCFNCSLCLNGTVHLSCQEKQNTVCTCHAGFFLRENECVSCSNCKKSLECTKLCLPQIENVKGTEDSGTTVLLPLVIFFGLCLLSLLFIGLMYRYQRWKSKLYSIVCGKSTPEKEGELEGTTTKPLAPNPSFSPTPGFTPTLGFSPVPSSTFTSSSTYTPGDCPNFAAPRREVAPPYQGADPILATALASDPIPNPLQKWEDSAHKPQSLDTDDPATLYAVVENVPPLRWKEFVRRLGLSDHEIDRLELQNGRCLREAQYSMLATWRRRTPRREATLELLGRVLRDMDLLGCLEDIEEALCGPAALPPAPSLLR
# T2: human TNFR1 (recombinant, R&D Systems cat no. 636-R1/CF, biotinylated) (human, UniProt P19438 30-211, limits assumed, biotinylated with EZ-Link NHS-LC-LC-biotin)
# T2 construct: it is not tied to the BIAcore reagent; also called p55; hTNFR1
# T2 sequence (looked up): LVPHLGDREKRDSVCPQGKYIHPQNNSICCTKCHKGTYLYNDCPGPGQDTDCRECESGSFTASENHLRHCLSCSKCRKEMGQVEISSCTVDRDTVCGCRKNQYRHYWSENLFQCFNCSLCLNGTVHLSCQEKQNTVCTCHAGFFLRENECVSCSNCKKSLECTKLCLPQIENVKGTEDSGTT
# B1: DOM1h-574-15 (other)
# VH: EVQLLESGGGLVQPGGSLRLSCAASGFTFVKYSMGWVRQAPGKGLEWVSQISNTGDHTYYADSVKGRFTISRDNSKNTLYLQMNSLRAEDTAVYYCAIYTGRWEPFDYWGQGTLVTVSS
# notes: VH dAb
# B2: DOM1h-574-19 (other)
# VH: B1 VH with V30G, G44D
# B3: DOM1h-574-10 (other)
# VH: B1 VH with V30G, G44D, D56G
# notes: VH dAb
# B4: DOM1h-574-13 (other)
# VH: B1 VH with H57R, I98K
# notes: VH dAb
# B5: DOM1h-574-11 (other)
# VH: B1 VH with D56G, I98K, Y108H
# notes: VH dAb
# B6: DOM1h-574-18 (other)
# VH: B1 VH with V30G, G44D, H57R
# notes: VH dAb
# B7: DOM1h-574-12 (other)
# VH: B1 VH with I98K
# notes: VH dAb
# B8: DOM1h-574-17 (other)
# VH: B1 VH with L45P
# notes: VH dAb
# B9: DOM1h-574 (other)
# VH: B1 VH with D56G, I98K, R102H
# notes: VH dAb; also called parental dAb
# B10: DOM1h-574-7 (other)
# VH: B1 VH with D56G
# notes: VH dAb
# B11: DOM1h-574-8 (other)
# VH: B1 VH with L45P, D56G
# notes: VH dAb
# B12: DMS0114 (bispecific antibody)
# chain: EVQLLESGGGLVQPGGSLRLSCAASGFTFVKYSMGWVRQAPGKGLEWVSQISNTADRTYYAHSVKGRFTISRDNSKNTLYLQMNSLRAEDTAVYYCAIYTGRWVPFEYWGQGTLVTVSSASTDIQMTQSPSSLSASVGDRVTITCRASQWIGSQLSWYQQKPGKAPKLLIMWRSSLQSGVPSRFSGSGSGTDFTLTISSLQPEDFATYYCAQGLMKPMTFGQGTKVEIKR
# B13: DMS0123 (bispecific antibody)
# chain: EVQLLESGGGLVQPGGSLRLSCAASGFTFVKYSMGWVRQAPGKGLEWVSQISNTADRTYYAHSVKGRFTISRDNSKNTLYLQMNSLRAEDTAVYYCAIYTGRWVPFEYWGQGTLVTVSSASGGGGSGGGGSGGGGSDIQMTQSPSSLSASVGDRVTITCRASQWIGSQLSWYQQKPGKAPKLLIMWRSSLQSGVPSRFSGSGSGTDFTLTISSLQPEDFATYYCAQGLRHPKTFGQGTKVEIKR
# B14: DMS0117 (bispecific antibody)
# chain: EVQLLESGGGLVQPGGSLRLSCAASGFTFVKYSMGWVRQAPGKGLEWVSQISNTADRTYYAHSVKGRFTISRDNSKNTLYLQMNSLRAEDTAVYYCAIYTGRWVPFEYWGQGTLVTVSSASTSGPSDIQMTQSPSSLSASVGDRVTITCRASQWIGSQLSWYQQKPGKAPKLLIMWRSSLQSGVPSRFSGSGSGTDFTLTISSLQPEDFATYYCAQGLRHPKTFGQGTKVEIKR
# B15: DMS0121 (bispecific antibody)
# chain: EVQLLESGGGLVQPGGSLRLSCAASGFTFVKYSMGWVRQAPGKGLEWVSQISNTADRTYYAHSVKGRFTISRDNSKNTLYLQMNSLRAEDTAVYYCAIYTGRWVPFEYWGQGTLVTVSSASGGGGSGGGGSGGGGSDIQMTQSPSSLSASVGDRVTITCRASRPIGTTLSWYQQKPGKAPKLLILWNSRLQSGVPSRFSGSGSGTDFTLTISSLQPEDFATYYCAQAGTHPTTFGQGTKVEIKR
# notes: anti-TNFR1 dAb / AlbudAb in-line fusion
# B16: DMS0122 (bispecific antibody)
# chain: B15 chain with T168M, W186F, N187G
# B17: DMS0124 (bispecific antibody)
# chain: B13 chain with R229M, H230K, K232M
# notes: as for B15
# B18: DMS0111 (bispecific antibody)
# chain: EVQLLESGGGLVQPGGSLRLSCAASGFTFVKYSMGWVRQAPGKGLEWVSQISNTADRTYYAHSVKGRFTISRDNSKNTLYLQMNSLRAEDTAVYYCAIYTGRWVPFEYWGQGTLVTVSSASTDIQMTQSPSSLSASVGDRVTITCRASRPIGTTLSWYQQKPGKAPKLLILWNSRLQSGVPSRFSGSGSGTDFTLTISSLQPEDFATYYCAQAGTHPTTFGQGTKVEIKR
# notes: as for B15
# B19: DMS0112 (bispecific antibody)
# chain: B18 chain with T154M, W172F, N173G
# notes: as for B15
# B20: DMS0115 (bispecific antibody)
# chain: EVQLLESGGGLVQPGGSLRLSCAASGFTFVKYSMGWVRQAPGKGLEWVSQISNTADRTYYAHSVKGRFTISRDNSKNTLYLQMNSLRAEDTAVYYCAIYTGRWVPFEYWGQGTLVTVSSASTSGPSDIQMTQSPSSLSASVGDRVTITCRASRPIGTTLSWYQQKPGKAPKLLILWNSRLQSGVPSRFSGSGSGTDFTLTISSLQPEDFATYYCAQAGTHPTTFGQGTKVEIKR
# notes: as for B15
# B21: DMS0118 (bispecific antibody)
# chain: B14 chain with R219M, H220K, K222M
# notes: as for B15
# B22: DMS0116 (bispecific antibody)
# chain: B20 chain with T158M, W176F, N177G
# notes: as for B15
# Molecular target: T1, human TNFR1 on MRC-5 cells
# Experiment: cell-based or functional assay
row,MRC-5 ND50 (TNFα-mediated IL-8 release) [nM],Binder
1,300,B1
2,140,B2
3,100,B3
4,300,B4
5,800,B5
6,17,B6
7,130,B7
8,20,B8
9,2200,B9
10,580,B10
11,10,B11

# Molecular target: T1, human TNFR1 on MRC-5 cells
# Experiment: cell-based or functional assay
# Remark: another data set of the same source
row,MRC5 (ND50 in nM) [nM],Binder
1,3.7,B12
2,5,B13
3,25.9,B14
4,1.8,B15
5,1.5,B16
6,1.9,B17
7,1.6,B18
8,1.3,B19
9,1.7,B20
10,1.4,B21
11,1.7,B22

# Molecular target: T2, human TNFR1 (recombinant, R&D Systems …)
# Experiment: BIAcore, human TNFR1
row,Kd [nM],Binder
1,20,B1
2,19,B3
3,44,B4
4,200,B5
5,4.1,B6
6,23,B7
7,8.4,B8
8,210,B9
9,48,B10
10,5.7,B11

# Molecular target: T2, human TNFR1 (recombinant, R&D Systems …)
# Experiment: BIAcore T100, biotinylated human TNFR1 on chip
# Procedure: Furthermore, the affinity and potency of the purified fusion molecules were determined using a BIAcore T100 and the MRC5 cell assay, respectively. The BIAcore T100 is a highly sensitive BIAcore version ideally suited for determination of high affinity binders (Papalia et al., Anal Biochem. 359, p 112 (2006)). Biotinylated, human TNFR1 was coated on the chip and each of the twelve AlbudAb fusions were passed over this surface at four different concentrations (2, 10, 50 and 250 nM). […] This improvement is observed regardless of the AlbudAb used for pairing and largest for the pairings with DOM7h-14-18. A second experiment used to establish if the different pairings affected the functional activity of the anti-TNFR1 dAb was the MRC5 cell assay (Table 8). A more marked difference between the pairings is observed in the MRC5 assay, in which the best potencies are observed in pairings with DOM7h-11-3 and DOM7h-11-12 while pairings with DOM7h-14-10 (DMS0117) lead to significant decreases in potency.
Kd [nM],koff [s⁻¹],kon [M⁻¹ s⁻¹],fold higher affinity than the other pairings [fold],Binder
0.2,6e-05,300000,,B15
0.077,3.5e-05,450000,3,B17
0.17,6.2e-05,370000,,B18
0.14,5.5e-05,400000,,B19
0.16,5.8e-05,360000,,B20
0.076,4.9e-05,640000,3,B21
0.14,5.4e-05,370000,,B22

# Source: patent US20120107330A1 (published 2012)
